Assay results taken from US20230357342A1 (published 2023).
Residue numbers refer to the chain shown, from its start. In names and notes the source's numbering stands.

T1: IL-18Rα/β heterodimer (Fc fused human IL-18Rα mixed with Fc fused human IL-18Rβ) (human, UniProt Q13478 19-329; O95256 20-356)
T1 construct: 6 µg/mL of alpha and beta receptors were mixed and pre-incubated 30 min before capture on anti-human IgG; also called alpha/beta heterodimer IL-18 receptor; heterodimeric human IL-18 receptor alpha (CD218a) and IL-18R accessory protein (IL-18RAP/CDw218b); not shown: Fc portion
T1 sequence (looked up) 1: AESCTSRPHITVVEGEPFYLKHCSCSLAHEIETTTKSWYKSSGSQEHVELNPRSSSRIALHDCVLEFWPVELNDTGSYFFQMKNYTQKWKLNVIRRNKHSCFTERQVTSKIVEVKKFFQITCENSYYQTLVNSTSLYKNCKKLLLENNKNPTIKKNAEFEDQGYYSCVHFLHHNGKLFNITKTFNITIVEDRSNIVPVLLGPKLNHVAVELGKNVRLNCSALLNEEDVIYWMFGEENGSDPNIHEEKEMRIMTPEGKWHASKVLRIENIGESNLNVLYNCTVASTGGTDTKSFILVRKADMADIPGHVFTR
T1 sequence (looked up) 2: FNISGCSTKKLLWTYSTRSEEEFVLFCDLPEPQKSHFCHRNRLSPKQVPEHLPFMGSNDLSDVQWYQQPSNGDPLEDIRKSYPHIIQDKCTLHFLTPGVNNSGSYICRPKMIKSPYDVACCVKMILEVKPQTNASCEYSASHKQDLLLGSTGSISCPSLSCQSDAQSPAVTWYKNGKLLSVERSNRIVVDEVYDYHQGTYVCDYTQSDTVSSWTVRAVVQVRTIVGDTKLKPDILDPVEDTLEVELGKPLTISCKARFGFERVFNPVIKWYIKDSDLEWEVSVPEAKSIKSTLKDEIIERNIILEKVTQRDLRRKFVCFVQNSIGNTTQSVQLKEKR

T2: Fc fused human IL-18Rα (human, UniProt Q13478 19-329)
T2 construct: captured by anti-human IgG on a CM5 chip; also called IL-18Rα monomer; human IL-18 receptor alpha (CD218a); not shown: Fc portion
T2 sequence (looked up): T1 sequence (looked up) 1

T3: IL-18 receptor on HEK-Blue IL18R reporter cells (UniProt Q13478 19-541; O95256 20-599, limits assumed)
T3 sequence (looked up) 1: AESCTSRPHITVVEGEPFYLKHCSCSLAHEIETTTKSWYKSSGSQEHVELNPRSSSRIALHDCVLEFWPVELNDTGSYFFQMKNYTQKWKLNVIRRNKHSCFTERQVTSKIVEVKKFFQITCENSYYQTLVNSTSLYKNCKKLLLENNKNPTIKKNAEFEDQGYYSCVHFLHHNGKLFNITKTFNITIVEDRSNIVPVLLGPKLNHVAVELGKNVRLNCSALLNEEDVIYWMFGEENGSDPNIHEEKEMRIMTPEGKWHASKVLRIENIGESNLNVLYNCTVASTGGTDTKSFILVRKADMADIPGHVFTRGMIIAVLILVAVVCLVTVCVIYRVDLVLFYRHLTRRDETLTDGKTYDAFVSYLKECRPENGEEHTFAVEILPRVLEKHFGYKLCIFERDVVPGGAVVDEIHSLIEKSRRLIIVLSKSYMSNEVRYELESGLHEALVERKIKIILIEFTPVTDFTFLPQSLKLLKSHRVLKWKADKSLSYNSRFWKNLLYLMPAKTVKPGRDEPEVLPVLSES
T3 sequence (looked up) 2: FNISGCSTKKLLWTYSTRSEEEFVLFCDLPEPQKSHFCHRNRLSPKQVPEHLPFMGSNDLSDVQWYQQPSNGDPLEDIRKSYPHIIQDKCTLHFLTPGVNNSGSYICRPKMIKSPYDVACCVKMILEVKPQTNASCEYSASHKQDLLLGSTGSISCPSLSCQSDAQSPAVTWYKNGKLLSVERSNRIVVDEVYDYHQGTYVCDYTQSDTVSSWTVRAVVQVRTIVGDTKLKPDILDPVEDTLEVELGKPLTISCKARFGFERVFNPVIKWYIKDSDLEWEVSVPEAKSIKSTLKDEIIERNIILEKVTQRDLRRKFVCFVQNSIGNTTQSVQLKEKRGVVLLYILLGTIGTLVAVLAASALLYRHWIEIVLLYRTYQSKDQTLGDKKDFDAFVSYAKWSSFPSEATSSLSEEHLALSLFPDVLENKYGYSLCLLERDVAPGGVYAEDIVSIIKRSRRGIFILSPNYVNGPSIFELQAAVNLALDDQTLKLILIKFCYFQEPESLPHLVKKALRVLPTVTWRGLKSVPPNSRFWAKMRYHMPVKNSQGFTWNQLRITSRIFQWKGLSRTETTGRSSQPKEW

B1: modified IL-18 polypeptide SEQ ID NO: 57 (E6K, C38S, K53A) (ligand)
chain: YFGKLKSKLSVIRNLNDQVLFIDQGNRPLFEDMTDSDSRDNAPRTIFIISMYADSQPRGMAVTISVKCEKISTLSCENKIISFKEMNPPDNIKDTKSDIIFFQRSVPGHDNKMQFESSSYEGYFLACEKERDLFKLILKKEDELGDRSIMFTVQNED
B2: modified IL-18 polypeptide SEQ ID NO: 229 (V11I, C38A, C76A, S105K, C127A) (ligand)
chain: B1 chain with K6E, V11I, S38A, A53K, C76A, S105K, C127A
B3: modified IL-18 polypeptide SEQ ID NO: 240 (E6R, V11I, C38A, K53A, T63A, C76A, C127A) (ligand)
chain: B1 chain with K6R, V11I, S38A, T63A, C76A, C127A
B4: modified IL-18 polypeptide SEQ ID NO: 225 (V11I, C38A, S55H, C76A, C127A) (ligand)
chain: B1 chain with K6E, V11I, S38A, A53K, S55H, C76A, C127A
B5: modified IL-18 polypeptide SEQ ID NO: 237 (E6K, V11I, C38A, K53A, T63A, C76A, C127A, V153E) (ligand)
chain: B1 chain with V11I, S38A, T63A, C76A, C127A, V153E
B6: modified IL-18 polypeptide SEQ ID NO: 219 (V11I, C38A, K53A, C76A, G108A, C127A) (ligand)
chain: B1 chain with K6E, V11I, S38A, C76A, G108A, C127A
B7: modified IL-18 polypeptide SEQ ID NO: 239 (E6K, V11I, C38A, M51G, K53A, T63A, C76A, C127A) (ligand)
chain: B1 chain with V11I, S38A, M51G, T63A, C76A, C127A
B8: modified IL-18 polypeptide SEQ ID NO: 232 (E6K, V11I, C38A, I49M, K53A, T63A, C76A, C127A) (ligand)
chain: B1 chain with V11I, S38A, I49M, T63A, C76A, C127A
B9: modified IL-18 polypeptide SEQ ID NO: 234 (E6K, V11I, C38A, K53A, T63A, C76A, Q103R, C127A) (ligand)
chain: B1 chain with V11I, S38A, T63A, C76A, Q103R, C127A
B10: modified IL-18 polypeptide SEQ ID NO: 220 (V11I, C38A, K53A, C76A, H109A, C127A) (ligand)
chain: B1 chain with K6E, V11I, S38A, C76A, H109A, C127A
B11: modified IL-18 polypeptide SEQ ID NO: 228 (V11I, C38A, C76A, S105I, C127A) (ligand)
chain: B1 chain with K6E, V11I, S38A, A53K, C76A, S105I, C127A
B12: modified IL-18 polypeptide SEQ ID NO: 218 (V11I, C38A, K53A, C76A, C127A, D132A) (ligand)
chain: B1 chain with K6E, V11I, S38A, C76A, C127A, D132A
B13: modified IL-18 polypeptide SEQ ID NO: 235 (E6K, K8E, V11I, C38A, K53A, T63A, C76A, Q103R, C127A) (ligand)
chain: B1 chain with K8E, V11I, S38A, T63A, C76A, Q103R, C127A
B14: modified IL-18 polypeptide SEQ ID NO: 222 (K8R, V11I, C38A, C76A, Q103E, C127A) (ligand)
chain: B1 chain with K6E, K8R, V11I, S38A, A53K, C76A, Q103E, C127A
B15: modified IL-18 polypeptide SEQ ID NO: 221 (V11I, C38A, K53A, C76A, D110A, C127A) (ligand)
chain: B1 chain with K6E, V11I, S38A, C76A, D110A, C127A
B16: modified IL-18 polypeptide SEQ ID NO: 238 (E6K, V11I, C38A, K53A, T63A, C76A, C127A, V153Y) (ligand)
chain: B1 chain with V11I, S38A, T63A, C76A, C127A, V153Y
B17: modified IL-18 polypeptide SEQ ID NO: 230 (K8L, E6K, V11I, C38A, K53A, T63A, C76A, C127A) (ligand)
chain: B1 chain with K8L, V11I, S38A, T63A, C76A, C127A
B18: modified IL-18 polypeptide SEQ ID NO: 224 (V11I, C38A, C76A, Q103K, C127A) (ligand)
chain: B1 chain with K6E, V11I, S38A, A53K, C76A, Q103K, C127A
B19: modified IL-18 polypeptide SEQ ID NO: 227 (V11I, C38A, S55T, C76A, C127A) (ligand)
chain: B1 chain with K6E, V11I, S38A, A53K, S55T, C76A, C127A
B20: modified IL-18 polypeptide SEQ ID NO: 226 (V11I, C38A, S55R, C76A, C127A) (ligand)
chain: B1 chain with K6E, V11I, S38A, A53K, S55R, C76A, C127A
B21: modified IL-18 polypeptide SEQ ID NO: 233 (E6K, V11I, C38A, I49R, K53A, T63A, C76A, C127A) (ligand)
chain: B1 chain with V11I, S38A, I49R, T63A, C76A, C127A
B22: modified IL-18 polypeptide SEQ ID NO: 243 (Y1M, E6K, V11I, C38A, K53A, T63A, C76A, C127A) (ligand)
chain: B1 chain with Y1M, V11I, S38A, T63A, C76A, C127A
B23: modified IL-18 polypeptide SEQ ID NO: 223 (K8E, V11I, C38A, C76A, Q103R, C127A) (ligand)
chain: B1 chain with K6E, K8E, V11I, S38A, A53K, C76A, Q103R, C127A
B24: modified IL-18 polypeptide SEQ ID NO: 242 (N-terminal G, E6K, V11I, C38A, K53A, T63A, C76A, C127A) (ligand)
chain: GYFGKLKSKLSIIRNLNDQVLFIDQGNRPLFEDMTDSDARDNAPRTIFIISMYADSQPRGMAVAISVKCEKISTLSAENKIISFKEMNPPDNIKDTKSDIIFFQRSVPGHDNKMQFESSSYEGYFLAAEKERDLFKLILKKEDELGDRSIMFTVQNED
B25: modified IL-18 polypeptide SEQ ID NO: 244 (N-terminal G, E6K, V11I, C38A, M51G, K53A, T63A, C76A, C127A) (ligand)
chain: B24 chain with M52G
B26: modified IL-18 polypeptide SEQ ID NO: 241 (N-terminal 4xG, E6K, V11I, C38A, K53A, T63A, C76A, C127A) (ligand)
chain: GGGGYFGKLKSKLSIIRNLNDQVLFIDQGNRPLFEDMTDSDARDNAPRTIFIISMYADSQPRGMAVAISVKCEKISTLSAENKIISFKEMNPPDNIKDTKSDIIFFQRSVPGHDNKMQFESSSYEGYFLAAEKERDLFKLILKKEDELGDRSIMFTVQNED

Biological target: T1, IL-18Rα/β heterodimer (Fc fused human …)
Experiment: SPR, Fc-IL-18Rα and Fc-IL-18Rβ pre-mixed and captured, IL-18 as analyte, heterogeneous ligand model
Procedure: (§1) The interaction of the wild type and of modified IL-18 polypeptides with human IL-18 receptor subunits are measured with Surface Plasmon Resonance (SPR) technology. Anti-human IgG antibodies are bound by amine coupling onto a CM5 chip to capture 6 μg/mL of Fc fused human IL-18Rα, 6 μg/mL of Fc fused human IL-18Rβ, or 2 μg/mL of Fc fused human IL-18BP isoform a (IL-18BPa) for 30 min before capture. In other settings, 6 μg/mL of alpha and beta IL-18 receptors are mixed and pre-incubated for 30 min before capture of the alpha/beta heterodimer IL-18 receptor.
(§2) The kinetic binding of the IL-18 analytes are measured with a Biacore 8K instrument in two fold serial dilutions starting at 1 μM down to 0.98 nM. Regeneration of the surface back to amine coupled anti IgG antibody is done after every concentration of analyte. To measure the protein association to the receptors, the samples are injected with a flow rate of 50 μL/min for 60 s, followed by 300 s buffer only to detect the dissociation. The used running buffer is 1×PBS with 0.05% Tween20. The relative response units (RU, Y-axis) are plotted against time (s, X-axis) and analyzed in a kinetic 1:1 binding model for the monomer receptor binding and for the binding to the IL-18BP. A kinetic heterogenous ligand fit model is applied for the alpha/beta heterodimer binding.

Binder	Kd [nM]	koff [s⁻¹]	kon [M⁻¹ s⁻¹]
B1	2.92	0.0008	279000

Biological target: T2, Fc fused human IL-18Rα
Experiment: SPR, Fc-IL-18Rα captured via anti-human IgG, IL-18 as analyte, 1:1 model
Procedure: as §1, §2

Binder	Kd [nM]	koff [s⁻¹]	kon [M⁻¹ s⁻¹]
B1	72.4	0.0151	208000

Biological target: T3, IL-18 receptor on HEK-Blue IL18R …
Experiment: cell-based or functional assay

Binder	EC50, HEK-Blue IL18R reporter (SEAP) [nM]
B1	0.53
B2	7.73
B3	0.04
B4	3.14
B5	0.1
B6	15.6
B7	0.1
B8	0.07
B9	0.26
B10	19.5
B11	5.37
B12	1.95
B13	0.4
B14	2.01
B15	2.02
B16	0.08
B17	0.29
B18	1.5
B19	4.73
B20	1.91
B21	0.04
B22	0.02
B23	2.3
B24	1.68
B25	14
B26	2.5
